Where two headings read alike, the source gives them in different places.
T1: Su(dx) WW1 domain (Drosophila, UniProt Q9Y0H4 352-398)
T1 chain (looked up): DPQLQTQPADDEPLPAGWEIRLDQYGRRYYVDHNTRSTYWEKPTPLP


Experiments:
Test in all cases: ITC
[1] = molecular target: T1, Su(dx) WW1 domain
[2] = molecular target: T2, Su(dx) WW2 domain (Drosophila, UniProt Q9Y0H4 392-431)
[3] = molecular target: T3, Su(dx) WW3 domain (Drosophila, UniProt Q9Y0H4 471-514)
[4] = molecular target: Su(dx) WW4 domain (Drosophila, UniProt Q9Y0H4 515-557)
[5] = molecular target: Su(dx) WW4 (F549W) mutant domain (Drosophila, UniProt Q9Y0H4 515-557, F549W)
[6] = molecular target: Su(dx) WW3-4 (W505F) mutant tandem pair (Drosophila, UniProt Q9Y0H4 474-554, W505F)
[7] = molecular target: Su(dx) WW3-4 tandem domain pair (Drosophila, UniProt Q9Y0H4 474-554)
[8] = molecular target: Su(dx) WW3-4 preloaded (saturated) with WBP1 peptide (Drosophila | , UniProt Q9Y0H4 474-554)
[9] = molecular target: T2, Su(dx) WW2 domain; remark: listed apart in the source
[10] = molecular target: T3, Su(dx) WW3 domain; remark: listed apart in the source

T3 sequence (Q9Y0H4 471-514): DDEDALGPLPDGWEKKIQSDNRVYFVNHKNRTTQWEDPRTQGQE
T2 sequence (Q9Y0H4 392-431): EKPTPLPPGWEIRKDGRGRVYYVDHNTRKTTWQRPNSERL
Sequence of Su(dx) WW3-4 tandem domain pair (Q9Y0H4 474-554): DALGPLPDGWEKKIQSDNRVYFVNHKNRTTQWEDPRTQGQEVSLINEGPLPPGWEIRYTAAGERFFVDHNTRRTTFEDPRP
Sequence of Su(dx) WW4 (F549W) mutant domain (Q9Y0H4 515-557 F549W): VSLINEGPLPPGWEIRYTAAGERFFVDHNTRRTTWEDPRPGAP
Sequence of Su(dx) WW4 domain (Q9Y0H4 515-557): as the sequence (Q9Y0H4 515-557 F549W) above, with W35F counted along it
Sequence of Su(dx) WW3-4 preloaded (saturated) with WBP1 peptide (Q9Y0H4 474-554): as the sequence (Q9Y0H4 474-554) above
Sequence of Su(dx) WW3-4 (W505F) mutant tandem pair (Q9Y0H4 474-554 W505F): as the sequence (Q9Y0H4 474-554) above, with W32F counted along it

Row | Binder | Kd [1] | Kd [2] | Kd [3] | Kd [4] | Kd [5] | Kd [6] | Kd [7] | Kd [8] | Kd [9] | Kd [10]
1 | AKQPPSYEDCIK [Notch PY motif peptide N1] | 214 µM | 199 µM | 208 µM | 45 µM | 15 µM | 97 µM | 95 µM | 42 µM | – | –
2 | GPPPPPYPG [WBP1 peptide] | 125 µM | 116 µM | 114 µM | – | 31 µM | – | 185 µM | – | 117 µM | 115 µM
3 | AKQPPSYEDC [Notch PY motif peptide N2] | – | – | – | 45 µM | – | – | – | – | – | –

Reference: PMC4244684 (The Journal of biological chemistry, 2007)
